Data set [1] deals with T1, beta-catenin (Homo sapiens, UniProt P35222).
T1 sequence (P35222 1-781): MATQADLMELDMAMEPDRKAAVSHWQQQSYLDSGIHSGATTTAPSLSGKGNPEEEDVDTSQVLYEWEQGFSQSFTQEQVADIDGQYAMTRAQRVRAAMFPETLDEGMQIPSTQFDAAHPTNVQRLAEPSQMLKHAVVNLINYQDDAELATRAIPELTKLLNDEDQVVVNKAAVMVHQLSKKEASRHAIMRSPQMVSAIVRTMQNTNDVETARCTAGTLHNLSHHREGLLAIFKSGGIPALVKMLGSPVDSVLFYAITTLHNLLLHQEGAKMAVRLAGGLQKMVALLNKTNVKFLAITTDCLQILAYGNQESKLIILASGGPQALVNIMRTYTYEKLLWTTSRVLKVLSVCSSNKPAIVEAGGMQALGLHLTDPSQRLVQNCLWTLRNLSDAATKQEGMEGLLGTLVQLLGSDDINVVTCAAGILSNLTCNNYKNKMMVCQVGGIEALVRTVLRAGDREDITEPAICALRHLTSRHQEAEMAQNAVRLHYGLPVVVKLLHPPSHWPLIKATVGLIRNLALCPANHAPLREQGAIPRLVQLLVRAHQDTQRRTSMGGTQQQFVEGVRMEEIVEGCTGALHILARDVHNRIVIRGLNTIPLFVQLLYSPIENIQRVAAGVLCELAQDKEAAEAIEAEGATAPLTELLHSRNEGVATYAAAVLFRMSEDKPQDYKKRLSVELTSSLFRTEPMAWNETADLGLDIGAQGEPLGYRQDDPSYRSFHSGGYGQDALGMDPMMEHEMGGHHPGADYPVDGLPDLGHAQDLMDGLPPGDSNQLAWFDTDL
As to the kind of experiment: fluorescence polarization binding to beta-catenin. Particulars: read-out: beta-Catenin FP IC50. (In fluorescence polarisation assays a small probe gives low polarisation when free and higher when bound to something large.)
Method: In some embodiments, an EC50 is measured by fluorescence polarization as described in the Examples.

Another data set deals with T2, beta-catenin/TCF4 (Homo sapiens, UniProt P35222).
T2 construct: expressed in transfected cells; host or cells: HEK293 cells
T2 sequence (P35222 1-781): T1 sequence (P35222 1-781)
Briefly: Nano-BRET target engagement assay (HEK293 cells). The format is cell-based. The note with it: read-out: NanoBRET Abs IC50.

The nature of data set [2]: mouse plasma pharmacokinetics. The note with it: single intraperitoneal (IP) dose at 100 mg/kg. The format is in vivo.
Method: (B): Mouse plasma pharmacokinetics. […] Mouse single dose IP, 50 mg/kg.
Concentrations of agents in biological samples were measured by LC-MS/MS (Triple Quad 6500+). […] 8 uL of plasma or tissue lysate was used for LC method with mobile phase A (1% formic acid (FA, LS118-4, Fisher Scientific) in H2O) and mobile phase B (0.1% FA in ACN), 0.6 ml/min flow rate in Waters ACQUITY UPLC BEH C18 2.1*50 mm, 1.7 μm column. […] MS was conducted by electrospray ionization and multi reaction monitor scans. PK parameters such as plasma maximum concentration (Cmax), and AUC were analyzed by noncompartmental model 200 of Phoenix WinNonlin 8.3, using the linear/log trapezoidal method.
The next data set deals with beta-catenin/TCF. The format is cell-based. The note with it: COLO320DM cells.
In another data set the test system is COLO320DM cells. As to the kind of experiment: COLO320DM proliferation assay. The class given is cell-based, human. Particulars: read-out: COLO320DM Proliferation Abs IC50. The method, then:
Various technologies can be utilized to assess technologies of the present disclosure. For example, in some embodiments, solubility, LogD, interactions with targets, etc. of various agents such as stapled peptides were assessed using technologies described in WO 2022/261257 (e.g., those in its Examples). In some embodiments, solubility, shake flask LogD, and binding to beta-catenin were assessed. In some embodiments, an assay for assessing interactions, e.g., with beta-catenin, was fluorescence polarization as described in WO 2022/261257. In some embodiments, an assay was Nano-BRET target engagement assay that assessed beta-catenin/TCF4 engagement as described in WO 2022/261257. In some embodiments, an assay was a reporter assay as reported in Example 4 of WO 2022/261257. In some embodiments, an assay was a COLO320DM proliferation assay as reported in Example 4 of WO 2022/261257.
Among other things, provided technologies can inhibit proliferation of various cells including various cancer cells. In some embodiments, provided technologies modulate WNT specific transcription. In some embodiments, provided technologies induce cell cycle arrest. In some embodiments, provided technologies induce G1 cell cycle arrest. In some embodiments, provided technologies increased proportion of cells in G1 phase of cell cycle. As confirmed in FIG. 3, provided technologies can inhibit proliferation of COLO320DM, which is a colorectal cell line comprising various mutations such as APC, TP53, etc., modulate WNT specific transcription such as of AXIN2 and CXCL12, and induce G1 cell cycle arrest. In some embodiments, it was confirmed that provided technologies can reduce proportion of cells in S phase of cell cycle.

A further data set deals with DLD1 reporter. Briefly: reporter assay (DLD1 reporter assay). The note with it: read-out: DLD1 4% Abs IC50; DLD1 4%. The class given is cell-based.
For data set [3], the target named is beta-catenin (human). Briefly: fluorescence polarization; bin >750 nM.
Data set [4] concerns the target T3, beta-catenin (human, UniProt B6V8E6 146-665 (dog entry), limits assumed).
T3 sequence: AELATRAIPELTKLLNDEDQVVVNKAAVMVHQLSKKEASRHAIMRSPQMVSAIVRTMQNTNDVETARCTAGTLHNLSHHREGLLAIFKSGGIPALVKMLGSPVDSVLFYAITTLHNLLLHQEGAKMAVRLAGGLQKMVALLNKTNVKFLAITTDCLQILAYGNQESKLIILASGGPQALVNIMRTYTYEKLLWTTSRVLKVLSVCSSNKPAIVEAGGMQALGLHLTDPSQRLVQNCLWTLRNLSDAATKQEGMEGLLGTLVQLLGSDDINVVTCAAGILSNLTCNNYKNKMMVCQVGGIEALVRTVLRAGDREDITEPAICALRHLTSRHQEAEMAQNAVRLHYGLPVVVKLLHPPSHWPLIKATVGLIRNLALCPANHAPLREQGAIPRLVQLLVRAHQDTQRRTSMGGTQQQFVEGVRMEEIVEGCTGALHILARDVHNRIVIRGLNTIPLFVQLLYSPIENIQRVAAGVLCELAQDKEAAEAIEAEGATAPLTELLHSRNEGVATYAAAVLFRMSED
Briefly: cell-based or functional assay.

Data set [5] concerns the target beta-catenin (human). Briefly: cell-based or functional assay.

*1 amine or outer side, *2 acyl side, *3 side chain or, on linkers, in order; H or OH if unused. Bridges are numbered along the chain shown (N, C = ends). Primed or numbered codes have the meaning given here. [ ]: non-standard residue; d: D form. PyrS2(6) = (S)-3-amino-1-((pent-4-en-1-yloxy)carbonyl)pyrrolidine-3-carboxylic acid, stapled with another olefin-containing amino acid residue through the olefin group, O=C(OCCCC=[*:3])N1CC[C@@](N[*:1])(C(=O)[*:2])C1; B5(4) = 2-amino-2-(pent-4-en-1-yl)hept-6-enoic acid, stapled through each of its two olefin groups with other olefin-containing amino acid residues, O=C(C(CCCC=[*:3])(CCCC=[*:4])N[*:1])[*:2]; PyrS2″ = (S)-3-amino-1-((pent-4-en-1-yloxy)carbonyl)pyrrolidine-3-carboxylic acid (olefin stapling residue), C=CCCCOC(=O)N1CC[C@@](N[*:1])(C(=O)[*:2])C1; PyrS2 = (S)-3-amino-1-((pent-4-en-1-yloxy)carbonyl)pyrrolidine-3-carboxylic acid, olefin staple residue, C=CCCCOC(=O)N1CC[C@@](N[*:1])(C(=O)[*:2])C1; PyrS2(5) = (S)-3-amino-1-((pent-4-en-1-yloxy)carbonyl)pyrrolidine-3-carboxylic acid, C=CCCCOC(=O)N1CC[C@@](N[*:1])(C(=O)[*:2])C1; B5″ = 2-amino-2-(pent-4-en-1-yl)hept-6-enoic acid (bis-olefin stapling residue), C=CCCCC(CCCC=C)(N[*:1])C(=O)[*:2]; B5(5) = 2-amino-2-(pent-4-en-1-yl)hept-6-enoic acid (two olefin arms), C=CCCCC(CCCC=C)(N[*:1])C(=O)[*:2]; Phe(3-COOH) = N[C@@H](Cc1cccc(C(=O)O)c1)C(=O)O; 2F3MeF = Cc1cccc(C[C@H](N[*:1])C(=O)[*:2])c1F; Bta = N[C@@H](Cc1csc2ccccc12)C(=O)O; αAllylPro = C=CC[C@@]1(C(=O)O)CCCN1; tBuAla = CC(C)(C)C[C@H](N)C(=O)O; 3Thi = N[C@@H](Cc1ccsc1)C(=O)O; TriAzLys(3) = not defined here; hSer = N[C@@H](CCO)C(=O)O; 2F3MeF(4) = Phe analogue; AsnR = not defined here; GlnR = not defined here; sAla = not defined here; B5 = not defined here; Aib = CC(C)(N)C(=O)O A value given as a limit tells only on which side of the number the result lay.

Method for beta-catenin/TCF4: In some embodiments, capabilities of provided technologies, e.g., binding to beta-catenin and/or disrupt its interactions (or lack thereof) with various partners were assessed and confirmed in cells, e.g., using a NanoBRET based assay in HEK293 cells.

Turning to “Ac-PL3-Asp-Npg-B5-Asp-4F3Me2COOHF-Aib-Ala-Phe-Lys*3-PyrS2-2F3MeF-BztA-GlnR*3-Ala-NH2 [I-205]”, the IC50 on beta-catenin [1] was under 50 nM; on beta-catenin/TCF4, 3000 to 10000 nM.

On to `CC(=O)N1CCC[C@]12CC=CCCCC1(CCCC=CCCCOC(=O)N3CC[C@@]4(C3)NC(=O)[C@H](CCCCNC(=O)CC[C@@H](C(=O)N[C@@H](C)C(N)=O)NC(=O)[C@H](Cc3csc5ccccc35)NC(=O)[C@H](Cc3ccsc3)NC4=O)NC(=O)[C@H](Cc3ccccc3)NC(=O)[C@H](C)NC(=O)C(C)(C)NC(=O)[C@H](Cc3cccc(C(=O)O)c3)NC(=O)[C@H](CCC(=O)O)NC1=O)NC(=O)[C@H](CC(C)(C)C)NC(=O)[C@H](CCC(=O)O)NC2=O` (relative stereo) [I-470, Ac-PL3-Glu-Npg-B5-Glu-3COOHF-Aib-Ala-Phe-Lys*3-PyrS2-3Thi-BztA-GlnR*3-Ala-NH2], for which the “plasma AUC” value in data set [2] was “comparable plasma AUC”. The “effect on expression level of AXIN2” value in the data set with beta-catenin/TCF is given as “no or very little or non-significant effect”.

Take `CC(=O)N1CCC[C@]12CC=CCCCC1(CCCC=CCCCOC(=O)N3CC[C@@]4(C3)NC(=O)[C@H](CCCCNC(=O)CC[C@@H](C(=O)N[C@@H](CC(C)C)C(=O)N[C@@H](CO)C(N)=O)NC(=O)[C@H](Cc3csc5ccccc35)NC(=O)[C@H](Cc3ccccc3C(F)(F)F)NC4=O)NC(=O)[C@H](Cc3ccccc3)NC(=O)[C@H](C)NC(=O)C(C)(C)NC(=O)[C@H](Cc3cccc(C(=O)O)c3)NC(=O)[C@H](CC(=O)O)NC1=O)NC(=O)[C@H](CC(C)(C)C)NC(=O)[C@H](CC(=O)O)NC2=O` (relative stereo) [I-138, Ac-PL3-Asp-Npg-B5-Asp-3COOHF-Aib-Ala-Phe-Lys*3-PyrS2-2F3MeF-BztA-GlnR*3-Leu-Ser-NH2]: the IC50 in the data set with COLO320DM cells is at most 10000 nM; with DLD1 reporter it was at most 1000 nM.

B1: I-26 (peptide)
peptide: Ac-[αAllylPro]D[tBuAla][B5(4)]DD[sAla]AF[TriAzLys(3)][PyrS2(6)][3Thi][Bta]Q-NH2
modifications: triazole 7-10; not fully specified (bridges); printed as Ac-PL3-Asp-Npg-B5-Asp-Asp-sAla*3-Ala-Phe-TriAzLys*3-PyrS2-3Thi-BztA-Gln-NH2; reading uncertain
Molecule B1 showed an IC50 with beta-catenin (human) [3] of under 1000 nM.

B2: I-147 (peptide)
peptide: Ac-[αAllylPro][hSer][tBuAla][B5″]D[Phe(3-COOH)][Aib]AFK[PyrS2″][2F3MeF][Bta][GlnR]LS-NH2
modifications: bridge 10-14; reading uncertain; also: PL3-B5 and PyrS2 links not placed, printed as Ac-PL3-Hse-Npg-B5-Asp-3COOHF-Aib-Ala-Phe-Lys*3-PyrS2-2F3MeF-BztA-GlnR*3-Leu-Ser-NH2
In the data set with beta-catenin (human) [3], B2 returned an IC50 of under 1000 nM.

B3: I-35 (peptide)
peptide: Ac-[αAllylPro]D[tBuAla][B5(5)]D[Phe(3-COOH)]AAF[AsnR][PyrS2(5)][3Thi][Bta]K-NH2
modifications: bridge 10-14; not fully specified (bridges); printed as Ac-PL3-Asp-Npg-B5-Asp-3COOHF-Ala-Ala-Phe-AsnR*3-PyrS2-3Thi-BztA-Lys*3-NH2; reading uncertain
Regarding B3, in the data set with beta-catenin (human) [3], the IC50 is under 1000 nM.

B4: I-44 (peptide)
peptide: Ac-[αAllylPro]D[tBuAla][B5(5)]D[Phe(3-COOH)]AAF[AsnR][PyrS2(5)][3Thi][Bta]KA-NH2
modifications: bridge 10-14; reading uncertain; also: PL3/B5/PyrS2 staple links not placed, printed as Ac-PL3-Asp-Npg-B5-Asp-3COOHF-Ala-Ala-Phe-AsnR*3-PyrS2-3Thi-BztA-Lys*3-Ala-NH2
B4: in the data set with beta-catenin (human) [3], the IC50 is under 1000 nM.

B5: I-28 (peptide)
peptide: Ac-[αAllylPro]D[tBuAla][B5(4)]D[Phe(3-COOH)][sAla]AF[TriAzLys(3)][PyrS2(6)][2F3MeF(4)][Bta]Q-NH2
modifications: triazole 7-10; not fully specified (bridges); printed as Ac-PL3-Asp-Npg-B5-Asp-3COOHF-sAla*3-Ala-Phe-TriAzLys*3-PyrS2-2F3MeF-BztA-Gln-NH2; reading uncertain
B5: the IC50 in the data set with beta-catenin (human) [3] is under 1000 nM.

Turning to Ac-[αAllylPro]D[tBuAla][B5]D[Phe(3-COOH)]AAFL[PyrS2][2F3MeF][Bta]Q-NH2 (staple 1-4, 4-11; not fully specified; reading uncertain) [Peptide A], in the data set with beta-catenin [4], the “AXIN2 expression IC50, COLO320DM cells” value was found to be 1400 nM; the “AXIN2 expression IC50, DLD1 cells” value worked out at 9300 nM; the “SP5 expression IC50, DLD1 cells” value turned out to be 9000 nM.

B6: I-133 (peptide)
peptide: Ac-[αAllylPro]D[tBuAla][B5]D[Phe(3-COOH)][GlnR]AFL[PyrS2][2F3MeF][Bta][GlnR](39N2spiroundecane)A-NH2
modifications: staple 1-4, 4-11 (inferred); not fully specified; printed as Ac-PL3-Asp-Npg-B5-Asp-3COOHF-GlnR-Ala-Phe-Leu-PyrS2-2F3MeF-BztA-[39N2spiroundecane]GlnR-Ala-NH2; reading uncertain; also: staple C=C reduced to CH2-CH2
In turn, B6 had a NanoBRET Abs IC50 with beta-catenin (human) [5] of over 10000 nM. The same molecule came in with an IC50 with beta-catenin (human) [3] of under 1000 nM.

The values are drawn from US20260207704A1, “STAPLED PEPTIDES AND METHODS THEREOF” (priority 2022, published 2026).
